The values below come from article PMC2729104 (Nature immunology, 2009).

The target of experiment [1] is protease fragment Bb of factor B (from plasma-purified FB) (human, UniProt P00751 260-764). Description: pull-down.
Experiment [2] has as its target protease fragment Bb of factor B (from recombinant FB) (human, UniProt P00751 260-764). Description: crystal structure.

Chain of protease fragment Bb of factor B (from plasma-purified FB) (P00751 260-764): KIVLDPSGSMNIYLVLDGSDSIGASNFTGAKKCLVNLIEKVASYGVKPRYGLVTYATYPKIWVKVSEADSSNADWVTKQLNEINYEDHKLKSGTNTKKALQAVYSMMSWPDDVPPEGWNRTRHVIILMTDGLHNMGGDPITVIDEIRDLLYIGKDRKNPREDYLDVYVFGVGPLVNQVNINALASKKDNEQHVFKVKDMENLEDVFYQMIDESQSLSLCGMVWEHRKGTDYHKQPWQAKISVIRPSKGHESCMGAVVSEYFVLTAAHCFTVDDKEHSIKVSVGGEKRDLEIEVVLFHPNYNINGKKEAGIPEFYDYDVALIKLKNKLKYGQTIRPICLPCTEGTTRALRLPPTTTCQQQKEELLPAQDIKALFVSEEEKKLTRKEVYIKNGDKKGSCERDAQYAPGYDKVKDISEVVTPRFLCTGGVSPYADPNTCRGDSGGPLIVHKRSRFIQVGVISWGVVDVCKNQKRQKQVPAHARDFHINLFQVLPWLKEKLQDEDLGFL
Chain of protease fragment Bb of factor B (from recombinant FB) (P00751 260-764): as above

B1: SCIN protein with an N-terminal His6 tag (natural protein, Staphylococcus aureus)
chain: STSLPTSNEYQNEKLANELKSLLDELNVNELATGSLNTYYKRTIKISGQKAMYALKSKDFKKMSEAKYQLQKIYNEIDEALKSKY
Take B1: the binding result in experiment [1] and in experiment [2] was “binds” in each case.
